Reference: PMC8991485, “Protein purification strategies must consider downstream applications and individual biological characteristics” (Microbial Cell Factories, 2022)
One block for each molecule: values may come before it.

Assays:
[1] = target: cysteine-less mutant of Galectin-1 (UniProt P09382); assay: AUC; analytical ultracentrifugation (sedimentation) of Galectin-1 purified in reducing or non-reducing conditions
[2] = target: wild-type recombinant soluble LLT1; assay: SEC; gel filtration of recombinant soluble LLT1 made in HEK293T; peak at 16 ml taken as the non-covalent dimer
[3] = target: the molecule itself; assay: as above

- stoichiometry N [1]: 2
Molecule: cysteine-less mutant of Galectin-1 (from UniProt P09382 1-135)

- stoichiometry N [2]: 2
Molecule: wild-type recombinant soluble LLT1 (domain or fragment)

B1: soluble LLT1 H176C mutant (domain or fragment)
chain: QAACPESWIGFQRKCFYFSDDTKNWTSSQRFCDSQDADLAQVESFQELNFLLRYKGPSDHWIGLSREQGQPWKWINGTEWTRQFPILGAGECAYLNDKGASSARCYTERKWICSKSDIHV
notes: soluble fragment of the lymphocyte receptor LLT1 with H176C, which restores the disulfide Cys163-Cys176; also called second mutant; source: HEK293T cell line, purified (gel filtration)
- stoichiometry N [3]: 2
